Laboratory results from ChEMBL document CHEMBL4476871, “SULFAMIDE AND SULFAMATE INHIBITORS OF hHint1” (2018).

Experiments:
[1] = compound: Nc1ncnc2c1ncn2[C@@H]1O[C@H](COP(=O)(O)OC(=O)CCc2c[nH]c3ccccc23)[C@@H](O)[C@H]1O; assay: (§1) Inhibition of full-length human N-terminal His6-tagged Hint1 expressed in Escherichia coli Rosetta 2 pLysS cells assessed as ratio of Kcat to Km
[2] = compound: Nc1nc2c(ncn2[C@@H]2O[C@H](COP(=O)(O)NCCc3c[nH]c4ccccc34)[C@@H](O)[C@H]2O)c(=O)[nH]1; assay: as §1

B1: Adenosine 5'-monophosphoramidase HINT1 (Homo sapiens), P49773 (protein)
chain: MADEIAKAQVARPGGDTIFGKIIRKEIPAKIIFEDDRCLAFHDISPQAPTHFLVIPKKHISQISVAEDDDESLLGHLMIVGKKCAADLGLNKGYRMVVNEGSDGGQSVYHVHLHVLGGRQMHWPPG
With B1 the kcat/Km [1] was 1.1 ×10⁷ /M/s and the kcat/Km [2] was 1.1 ×10⁷ /M/s.
